Source: patent US20250057840

What was measured:
[1] = target: GFP-MAGI1 Y373F (human MAGI1c-Y373F-GFP) (UniProt Q96QZ7)
[2] = target: GFP-tagged MAGI1 WT (human MAGI1c, pCMV6-AC-GFP-MAGI1c WT, Origene #RG212712) (UniProt Q96QZ7)
[3] = target: myc-tagged MAGI1 deletion of GUK domain (murine, pCDNA3.1) (UniProt Q6RHR9)
[4] = target: myc-tagged MAGI1 deletion of GUK-WW domains (murine, pCDNA3.1) (UniProt Q6RHR9)
[5] = target: myc-tagged MAGI1 deletion of WW domain (murine, pCDNA3.1) (UniProt Q6RHR9)
myc-tagged MAGI1 deletion of WW domain (murine, pCDNA3.1), sequence (Q6RHR9 other isoform, or with tags, fused parts or gaps): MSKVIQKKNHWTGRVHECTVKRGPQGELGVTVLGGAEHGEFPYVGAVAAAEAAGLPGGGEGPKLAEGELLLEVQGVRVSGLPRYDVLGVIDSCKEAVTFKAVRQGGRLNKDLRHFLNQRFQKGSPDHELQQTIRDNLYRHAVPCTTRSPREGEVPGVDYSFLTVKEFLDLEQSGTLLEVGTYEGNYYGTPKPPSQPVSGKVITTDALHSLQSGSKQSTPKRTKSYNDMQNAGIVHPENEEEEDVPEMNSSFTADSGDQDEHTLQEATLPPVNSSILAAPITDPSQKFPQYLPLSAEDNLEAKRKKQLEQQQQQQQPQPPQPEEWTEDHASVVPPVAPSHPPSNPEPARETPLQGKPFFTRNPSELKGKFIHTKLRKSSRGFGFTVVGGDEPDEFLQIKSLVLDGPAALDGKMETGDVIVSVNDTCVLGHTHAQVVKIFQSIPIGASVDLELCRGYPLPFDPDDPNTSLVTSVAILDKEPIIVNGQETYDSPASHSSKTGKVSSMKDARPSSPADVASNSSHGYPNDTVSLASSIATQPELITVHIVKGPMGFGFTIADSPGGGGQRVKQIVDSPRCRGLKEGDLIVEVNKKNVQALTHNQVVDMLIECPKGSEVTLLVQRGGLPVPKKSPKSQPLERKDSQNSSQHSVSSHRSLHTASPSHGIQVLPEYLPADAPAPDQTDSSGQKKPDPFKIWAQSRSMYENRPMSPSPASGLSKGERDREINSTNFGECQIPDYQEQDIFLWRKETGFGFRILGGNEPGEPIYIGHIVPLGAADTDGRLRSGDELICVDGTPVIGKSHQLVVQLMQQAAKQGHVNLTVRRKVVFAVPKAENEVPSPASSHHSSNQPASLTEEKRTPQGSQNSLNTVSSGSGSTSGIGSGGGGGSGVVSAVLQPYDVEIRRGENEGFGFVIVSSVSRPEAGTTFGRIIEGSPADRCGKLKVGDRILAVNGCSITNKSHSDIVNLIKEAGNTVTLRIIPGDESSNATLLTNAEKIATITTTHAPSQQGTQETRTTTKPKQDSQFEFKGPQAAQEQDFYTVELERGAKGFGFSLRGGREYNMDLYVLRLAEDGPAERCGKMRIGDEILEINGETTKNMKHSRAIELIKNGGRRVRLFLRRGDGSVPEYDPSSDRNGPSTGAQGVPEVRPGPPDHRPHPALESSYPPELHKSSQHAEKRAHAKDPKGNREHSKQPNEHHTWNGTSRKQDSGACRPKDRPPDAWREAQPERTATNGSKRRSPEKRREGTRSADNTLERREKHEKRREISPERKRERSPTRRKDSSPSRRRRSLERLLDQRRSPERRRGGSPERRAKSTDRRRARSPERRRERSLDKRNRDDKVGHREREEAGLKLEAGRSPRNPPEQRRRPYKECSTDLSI

myc-tagged MAGI1 deletion of GUK-WW domains (murine, pCDNA3.1), sequence (Q6RHR9 other isoform, or with tags, fused parts or gaps): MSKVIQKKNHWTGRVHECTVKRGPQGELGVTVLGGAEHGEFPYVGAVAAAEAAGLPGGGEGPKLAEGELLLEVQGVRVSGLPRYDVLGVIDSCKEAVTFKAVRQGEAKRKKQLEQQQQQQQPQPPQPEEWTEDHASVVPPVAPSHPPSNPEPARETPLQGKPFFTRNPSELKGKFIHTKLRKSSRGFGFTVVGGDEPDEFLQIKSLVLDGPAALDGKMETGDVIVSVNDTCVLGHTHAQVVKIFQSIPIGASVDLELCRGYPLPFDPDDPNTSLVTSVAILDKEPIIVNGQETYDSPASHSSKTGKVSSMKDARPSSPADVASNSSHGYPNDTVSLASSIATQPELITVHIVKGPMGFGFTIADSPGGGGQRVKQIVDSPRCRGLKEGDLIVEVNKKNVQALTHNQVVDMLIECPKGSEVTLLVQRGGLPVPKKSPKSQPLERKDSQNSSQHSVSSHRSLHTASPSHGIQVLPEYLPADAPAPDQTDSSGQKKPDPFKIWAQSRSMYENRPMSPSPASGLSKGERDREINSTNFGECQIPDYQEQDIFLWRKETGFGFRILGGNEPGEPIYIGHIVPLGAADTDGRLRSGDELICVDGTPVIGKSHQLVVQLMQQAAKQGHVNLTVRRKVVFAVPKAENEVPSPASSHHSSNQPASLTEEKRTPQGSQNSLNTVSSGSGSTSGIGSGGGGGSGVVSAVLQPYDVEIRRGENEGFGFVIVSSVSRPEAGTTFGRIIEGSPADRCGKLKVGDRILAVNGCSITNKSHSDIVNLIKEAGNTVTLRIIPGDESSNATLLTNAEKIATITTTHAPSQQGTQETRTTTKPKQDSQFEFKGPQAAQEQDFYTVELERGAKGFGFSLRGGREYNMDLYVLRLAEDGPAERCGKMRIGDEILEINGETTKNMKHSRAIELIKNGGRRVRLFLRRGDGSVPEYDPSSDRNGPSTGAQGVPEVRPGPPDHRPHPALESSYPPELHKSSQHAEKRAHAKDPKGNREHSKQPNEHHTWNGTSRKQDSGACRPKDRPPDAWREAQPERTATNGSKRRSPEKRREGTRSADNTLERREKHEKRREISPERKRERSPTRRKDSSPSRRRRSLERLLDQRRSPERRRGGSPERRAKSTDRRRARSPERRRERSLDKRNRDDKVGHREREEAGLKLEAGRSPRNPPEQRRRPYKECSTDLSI
GFP-tagged MAGI1 WT (human MAGI1c, pCMV6-AC-GFP-MAGI1c WT, Origene #RG212712), sequence (Q96QZ7 other isoform, or with tags, fused parts or gaps): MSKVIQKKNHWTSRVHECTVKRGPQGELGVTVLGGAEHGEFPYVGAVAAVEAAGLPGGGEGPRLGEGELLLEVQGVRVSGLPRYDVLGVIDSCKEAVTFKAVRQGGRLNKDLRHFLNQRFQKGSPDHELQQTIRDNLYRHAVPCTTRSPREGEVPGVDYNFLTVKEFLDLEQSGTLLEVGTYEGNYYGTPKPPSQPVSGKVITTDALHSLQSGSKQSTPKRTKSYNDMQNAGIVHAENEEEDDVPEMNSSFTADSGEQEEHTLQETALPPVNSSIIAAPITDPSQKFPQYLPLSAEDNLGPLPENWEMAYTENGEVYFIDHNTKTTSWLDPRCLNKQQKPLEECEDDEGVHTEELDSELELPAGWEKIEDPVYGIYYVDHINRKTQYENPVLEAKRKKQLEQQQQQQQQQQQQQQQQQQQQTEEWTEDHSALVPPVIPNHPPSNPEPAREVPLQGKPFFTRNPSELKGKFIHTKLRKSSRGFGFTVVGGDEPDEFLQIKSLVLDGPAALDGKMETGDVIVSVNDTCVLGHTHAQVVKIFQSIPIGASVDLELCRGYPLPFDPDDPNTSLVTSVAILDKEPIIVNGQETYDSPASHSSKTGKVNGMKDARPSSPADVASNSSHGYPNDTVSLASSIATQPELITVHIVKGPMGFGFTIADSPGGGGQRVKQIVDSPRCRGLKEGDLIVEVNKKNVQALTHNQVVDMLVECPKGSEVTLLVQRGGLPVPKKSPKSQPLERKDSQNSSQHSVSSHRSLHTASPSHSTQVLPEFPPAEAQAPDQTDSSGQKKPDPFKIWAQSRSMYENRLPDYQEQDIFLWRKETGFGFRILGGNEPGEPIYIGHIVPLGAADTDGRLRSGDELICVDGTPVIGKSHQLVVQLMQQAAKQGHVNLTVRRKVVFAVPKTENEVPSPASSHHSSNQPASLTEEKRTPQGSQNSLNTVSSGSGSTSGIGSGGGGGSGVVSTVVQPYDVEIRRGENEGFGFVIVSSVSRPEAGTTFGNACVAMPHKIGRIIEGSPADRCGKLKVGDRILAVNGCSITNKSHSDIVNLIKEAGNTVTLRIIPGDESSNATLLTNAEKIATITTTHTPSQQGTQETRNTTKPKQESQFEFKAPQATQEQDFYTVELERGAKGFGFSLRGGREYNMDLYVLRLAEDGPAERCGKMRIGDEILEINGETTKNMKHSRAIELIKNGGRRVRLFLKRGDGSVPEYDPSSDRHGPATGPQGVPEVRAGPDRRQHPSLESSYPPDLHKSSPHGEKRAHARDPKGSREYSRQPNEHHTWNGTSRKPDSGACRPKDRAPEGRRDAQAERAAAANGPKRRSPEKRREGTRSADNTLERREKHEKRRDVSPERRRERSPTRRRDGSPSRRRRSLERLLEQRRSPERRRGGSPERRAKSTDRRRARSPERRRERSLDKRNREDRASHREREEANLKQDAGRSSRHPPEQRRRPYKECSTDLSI
GFP-MAGI1 Y373F (human MAGI1c-Y373F-GFP), sequence (Q96QZ7 other isoform, or with tags, fused parts or gaps Y373F Y373F): as the sequence (Q96QZ7 other isoform, or with tags, fused parts or gaps) above, with Y373F counted along it

proto-oncogene tyrosine-protein kinase Src (SRC), wild type, expressed from pCMV SRC WT in 293T cells
phosphorylation of MAGI1 at Y373 (western blot with rabbit antisera against pMAGI1 Y373, 293T co-expression) [1]: co-expression of SRC and WT MAGI1 but not Y373F mutant resulted in strong phosphorylation of MAGI1 at Y373
phosphorylation of MAGI1 at Y373 (western blot with rabbit antisera against pMAGI1 Y373, 293T co-expression) [2]: co-expression of SRC and WT MAGI1 but not Y373F mutant resulted in strong phosphorylation of MAGI1 at Y373
Y373 phosphorylation (western blot with pMAGI1 Y373 antisera, 293T co-expression) [3]: Y373 phosphorylation was abolished when WW domain was absent but not GUK
Y373 phosphorylation (western blot with pMAGI1 Y373 antisera, 293T co-expression) [4]: Y373 phosphorylation was abolished when WW domain was absent but not GUK
Y373 phosphorylation (western blot with pMAGI1 Y373 antisera, 293T co-expression) [5]: Y373 phosphorylation was abolished when WW domain was absent but not GUK
